In article PMC4867895:

Substrate: O=C(O)CO
Experiment: purified protein
Settings: co-substrate O2; recombinant His-tagged enzyme

B1: CmGOX (Cyanidioschyzon merolae strain 10D) (protein)
chain: MVEKPAVNPATQPLNLAEYHLFAKARLPAMVYGYYASGADDEQTLRDNEEAFRRLRFRPRVLIDVSRVDITKQVMGIDLSFPLMVAPTAMQRMAHPEGELATARAVARIGTVMGLSSWATTSLEDVAAHVPGLPKFFQLYVYKDRAITERLVRRAERAGFRAIALTVDTPQLGRREADIRNQFQLPPHLSLANFADMKDFAQVKGGAGASGLASYVASLIDASLNWNDIAWLKSITRLPILLKGVVTAEDAQRALQYGADGIWISNHGARQLDGVTATIDCLEEVAQSVRGRIPVFIDSGVRRGTDVVKALALGADAVLIGRPIVWGLAVDGEEGVYRLLSLLKDEFKLAMQLCGCQKVSDIRRDLVVRDAFAPYDVRQMLSVKMQSKL
  Km: 900 ± 200 µM
